Results: patent US12285465B2, “Combined treatment of primary central nervous system lymphoma” (FONDAZIONE CENTRO SAN RAFFAELE, priority 2018, dated 2025)
Entries after “also recorded” stand apart in the source; their conditions may differ.

Assays:
[1] = INGRID phase II trial: toxicity graded by NCI-NCIC CTC version 3.0; format: in vivo; conditions: of 132 delivered courses; fever, chills, arterial hypertension
Experimental: Treatment side effects were assessed separately for each chemotherapy course and graded according to the NCI-NCIC CTC version 3·0^19. The worst toxicity per organ, per patient was considered. Periodic specialist controls, ECG, troponin levels determination, and echocardiography were performed before every treatment course to exclude cardiac toxicity. The impact of treatment on cognitive functions was not assessed by ad hoc tests.
Duration of response, PFS, OS, and tolerability were the secondary endpoints. Duration of response was defined as the time from the first assessment that documents the response to the date of relapse, date of death from any cause or date of the last visit of follow-up. PFS was defined as the interval between the time of entry onto trial and failure (relapsing or progressive disease), death from any cause or date of the last visit of follow-up. OS was defined as the time from entry onto trial until death from any cause or date of the last visit of follow-up. Tolerability was defined by of grade 3-4 AEs according to NCI CTCAE^19.

[2] = system: BBB permeability in lymphomatous lesions and perilesional area; assay: BBB permeability assessed by DCE-MRI (Ktrans); format: in vivo, human; conditions: tumoral/peritumoral areas
Experimental: Variations induced by NGR-hTNF in the BBB permeability at the level of the lymphomatous lesions, areas surrounding the tumor (perilesional area) and in the normal-appearing brain parenchyma were assessed by DCE-MRI. DCE acquisition followed a standard protocol^28 that included also conventional T1, T2, Flair, DWI and Dynamic Susceptibility Contrast Perfusion (DSC) sequences. […] In cases of multiple lesions, the largest one was considered. Post-processing of DCE-MRI was performed using Olea software (La Ciotat, France); all dynamic images were corrected for motion artifacts and co-registered to a volumetric post-contrast T1 sequences. Results were expressed as Ktrans values normalized using contralateral white matter. Ktrans obtained after the 2nd course (measured after NGR-hTNF infusion) were compared with those obtained after the 1st course (without NGR-hTNF) to establish the effect of TNF on BBB permeabilization. Statistically significance was assessed by Wilcoxon matched pairs test.

NGR-hTNF: genetically engineered protein consisting of CNGRCG fused to the N-terminus of human tumor necrosis factor alpha (SEQ ID No. 1), expressed in E. coli
TNF Infusion reaction Grade 1-2 (number of courses) [1]: nine | vascular permeability (DCE-MRI, SPECT) [2]: selectively increased vascular permeability in tumoral/peritumoral areas; also recorded: vascular permeability was increased
